Measurements from US20050107585A1 (UNIVERSITY OF KANSAS, published 2005).
Values belong to the binder of their own block, whether it stands above or below them. Where no end group is shown, it is not given here. [ ]: non-standard residue; d: D form. Ahx = NCCCCCC(=O)O

Experiments:
[1] = target: T1, ICAM-1 on NOD mouse APC / spleen cells (mouse (NOD), UniProt P13597 28-537); test: co-capping, fluorescence microscopy, T-depleted spleenocytes of NOD mice given the BPI i.v.
T1 construct: whole, on cells; Native ICAM-1 on live NOD spleen cells
T1 sequence (P13597 28-537): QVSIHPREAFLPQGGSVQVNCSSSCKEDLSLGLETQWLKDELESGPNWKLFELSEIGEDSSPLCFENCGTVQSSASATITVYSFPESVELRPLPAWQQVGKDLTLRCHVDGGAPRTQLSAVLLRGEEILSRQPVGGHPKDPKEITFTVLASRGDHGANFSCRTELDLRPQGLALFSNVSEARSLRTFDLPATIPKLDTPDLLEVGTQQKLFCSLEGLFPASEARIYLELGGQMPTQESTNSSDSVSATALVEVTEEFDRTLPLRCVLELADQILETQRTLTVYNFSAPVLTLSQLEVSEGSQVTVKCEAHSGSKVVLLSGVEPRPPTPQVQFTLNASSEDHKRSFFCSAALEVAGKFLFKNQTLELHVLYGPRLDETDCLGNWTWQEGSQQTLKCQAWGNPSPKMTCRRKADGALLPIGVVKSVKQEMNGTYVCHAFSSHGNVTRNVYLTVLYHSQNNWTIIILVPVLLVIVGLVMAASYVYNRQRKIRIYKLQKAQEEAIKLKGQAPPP
Experimental: To test the ability of the BPI peptide to link MHC-II and ICAM-1 molecules on the APC surface, we used a modification of a co-capping experiment originally described for monoclonal antibodies. […] Antibody-bound cells are then incubated with streptavidin (37 C×15 min.) to cap the MHC-II molecules on the APC surface. The cells were transferred to ice and labeled with a fluorescent (PE) monoclonal antibody to ICAM-1 (3E2). The cells are plated and observed for evidence that a given BPI links ICAM-1 into the MHC-II cap, i.e., by standard fluorescence microscopy and image analysis.

[2] = target: T1, ICAM-1 on NOD mouse APC / spleen cells; test: flow cytometry on live APC, blocking by mAb
Experimental: J. Immunol. 2337-2344 (1994). Spleen cell density-gradient fractions from normal (unimmunized) NOD, BALB/c and other MHC congenic strains were incubated in round bottom 96-well plates with increasing concentrations of individual biotinylated peptides at 37° C.,5% CO₂ for 16 hours. Following binding of the BPI to the APC, Avidin-FITC was incubated with the cells on ice for 30 minutes, followed bybiotinylated anti-Avidin for 1 hour, then again with Avidin-FITC. For BPI titrations, increasing concentrations (0.1-100 μM) of the biotinylated derivatives in sterile 0.5% BSA-PBS were incubated with the APC for 16 hours as above.
To test for competitive inhibition of BPI binding with unlabeled peptides or monoclonal antibodies to MHC-II and ICAM-1 on live APC, freshly isolated fractions of spleen cells were incubated with the previously biotinylated BPI. However, for this portion of the experiment, the experimental wells contained various unlabeled peptides (e.g., antigenic peptides or LFA-1 peptides), and/or monoclonal antibody (e.g., anti-MHC-II or anti-ICAM-1 mAb) inhibitors. Negative selection methods with monoclonal antibodies conjugated to magnetic particles were used to enrich the spleen cell fractions for B cells, macrophages, or dendritic cells as well as to examine differences in BPI binding to these different populations. […]

binding result [1]: binds
B1: EGAD-BPI (GAD65(208-217)-[Ac-G-Ac-G-Ac]-CD11a (237-247)), unlabeled (peptide)
peptide: EIAPVFVLLE[Ahx]G[Ahx]G[Ahx]ITDGEATDSG
notes: also called diabetes BPI

binding result [2]: binds
B2: biotinylated EGAD-BPI (GAD65(208-217)-[Ac-G-Ac-G-Ac]-CD11a (237-247)) (peptide)
peptide: EIAPVFVLLE[Ahx]G[Ahx]G[Ahx]ITDGEATDSG
modifications: also: biotinylated with NHS-Biotin, site not given here
notes: also called diabetes BPI; GAD 65 BPI
